According to the Immune Epitope Database (IEDB):

Experiments:
Experiment in all cases: IEDB peptide-MHC binding, purified MHC/competitive/radioactivity; filed as Kd, often an IC50 or EC50 that approximates it; ≥ and ≤ were set here for values at or beyond the usual limits of such assays
HLA-A*33:01 = biological target: HLA-A*33:01
HLA-A*03:01 = biological target: HLA-A*03:01
HLA-A*11:01 = biological target: HLA-A*11:01
HLA-A*31:01 = biological target: HLA-A*31:01
HLA-A*68:01 = biological target: HLA-A*68:01
[1] = source organism: Vaccinia virus WR
[2] = source organism: SARS coronavirus Tor2
[3] = source organism: Mammarenavirus machupoense
[4] = source organism: Mammarenavirus juninense
[5] = source organism: Vaccinia virus Copenhagen
[6] = source organism: Lassa virus Josiah

Row | Sequence | Kd (HLA-A*33:01; [1]) [nM] | Kd (HLA-A*03:01; [1]) [nM] | Kd (HLA-A*11:01; [1]) [nM] | Kd (HLA-A*31:01; [1]) [nM] | Kd (HLA-A*68:01; [1]) [nM] | other results
1 | FVSLVKKNK | ≥ 33600 | ≥ 78000 | 120 | ≥ 77900 | 215 | 
2 | WVFGSTMNNK |  |  |  |  |  | Kd (HLA-A*33:01; [2]): ≥ 70000 nM; Kd (HLA-A*03:01; [2]): 197 nM; Kd (HLA-A*11:01; [2]): 208 nM; Kd (HLA-A*31:01; [2]): 5950 nM; Kd (HLA-A*68:01; [2]): 3.24 nM
3 | SINVTIPEQY | 12800 | 19100 | 783 | 8190 | 5200 | 
4 | SMFWDGMDY | 10400 | 1.02 | 0.823 | 124 | 11.9 | 
5 | HMVRCCKVY | ≥ 45800 | 399 | ≥ 40000 | 10700 | 780 | 
6 | LMAFANQIHH |  |  |  |  |  | Kd (HLA-A*33:01; [3]): ≥ 70000 nM; Kd (HLA-A*03:01; [3]): 931 nM; Kd (HLA-A*11:01; [3]): 15300 nM; Kd (HLA-A*31:01; [3]): ≥ 22300 nM; Kd (HLA-A*68:01; [3]): ≥ 47300 nM
7 | YALINLVQY | ≥ 77700 | ≥ 78000 | ≥ 77900 | ≥ 20500 | ≥ 51800 | 
8 | HLYLQYIRK |  |  |  |  |  | Kd (HLA-A*33:01; [2]): 6900 nM; Kd (HLA-A*03:01; [2]): 0.172 nM; Kd (HLA-A*11:01; [2]): 14.8 nM; Kd (HLA-A*31:01; [2]): 516 nM; Kd (HLA-A*68:01; [2]): 1610 nM
9 | IASKINNNR | 76.6 | 13200 | 329 | 28.8 | 1.86 | 
10 | LMAYANQIHH |  |  |  |  |  | Kd (HLA-A*33:01; [4]): ≥ 53900 nM; Kd (HLA-A*03:01; [4]): 523 nM; Kd (HLA-A*11:01; [4]): 9790 nM; Kd (HLA-A*31:01; [4]): ≥ 24500 nM; Kd (HLA-A*68:01; [4]): ≥ 24200 nM
11 | KSVLDIISSK |  |  |  |  |  | Kd (HLA-A*33:01; [5]): 19900 nM; Kd (HLA-A*03:01; [5]): 24.5 nM; Kd (HLA-A*11:01; [5]): 8.96 nM; Kd (HLA-A*31:01; [5]): 152 nM; Kd (HLA-A*68:01; [5]): 267 nM
12 | GSYIALDSGR |  |  |  |  |  | Kd (HLA-A*33:01; [6]): 1160 nM; Kd (HLA-A*03:01; [6]): 4230 nM; Kd (HLA-A*11:01; [6]): 150 nM; Kd (HLA-A*31:01; [6]): 78.3 nM; Kd (HLA-A*68:01; [6]): 276 nM
13 | IVQMLSDTLK |  |  |  |  |  | Kd (HLA-A*33:01; [2]): ≥ 22500 nM; Kd (HLA-A*03:01; [2]): 292 nM; Kd (HLA-A*11:01; [2]): 64.4 nM; Kd (HLA-A*31:01; [2]): 3820 nM; Kd (HLA-A*68:01; [2]): 1180 nM
14 | NSISARALK | 6.53 | 78.7 | 3.99 | 11.1 | 4.9 | 
15 | DTQMRTPLHK | 12500 | 4160 | 78 | ≥ 52100 | 1480 | 
16 | SADASTFLK |  |  |  |  |  | Kd (HLA-A*33:01; [2]): 2570 nM; Kd (HLA-A*03:01; [2]): 16.4 nM; Kd (HLA-A*11:01; [2]): 2.97 nM; Kd (HLA-A*31:01; [2]): 99.8 nM; Kd (HLA-A*68:01; [2]): 12 nM
17 | TLVPQEHYVR |  |  |  |  |  | Kd (HLA-A*33:01; [2]): 1910 nM; Kd (HLA-A*03:01; [2]): 130 nM; Kd (HLA-A*11:01; [2]): 436 nM; Kd (HLA-A*31:01; [2]): 989 nM; Kd (HLA-A*68:01; [2]): 445 nM
18 | YTKFWYVNH |  |  |  |  |  | Kd (HLA-A*33:01; [4]): 28.2 nM; Kd (HLA-A*03:01; [4]): 10300 nM; Kd (HLA-A*11:01; [4]): 17800 nM; Kd (HLA-A*31:01; [4]): 604 nM; Kd (HLA-A*68:01; [4]): 6510 nM
19 | LSIVVDINK | ≥ 77700 | 5120 | 23.8 | 4130 | 15.1 | 
20 | MSHLKVALY | 18100 | 320 | 1690 | 703 | 147 | 
21 | SLNRQTVSR | 286 | 67.1 | 1350 | 7.2 | 818 | 
22 | PSTDVNKQNK | ≥ 70000 | 1260 | 3610 | 4780 | ≥ 26800 | 
23 | HIVGKSCPK |  |  |  |  |  | Kd (HLA-A*33:01; [6]): ≥ 24200 nM; Kd (HLA-A*03:01; [6]): 11000 nM; Kd (HLA-A*11:01; [6]): 15000 nM; Kd (HLA-A*31:01; [6]): ≥ 45000 nM; Kd (HLA-A*68:01; [6]): ≥ 26700 nM
24 | ILFMEMFFDY | ≥ 64300 | 31.6 | 121 | 5470 | 845 | 
25 | ALDEKWNEFK | ≥ 70000 | 192 | 98.2 | 7280 | 9850 | 
26 | YQSFLFWFLK | 3990 | 20.6 | 0.706 | 18.4 | 8.31 | 
27 | VMHINSPFK | 10700 | 1.8 | 0.224 | 19.9 | 79.3 | 
